T1: Hu/NoV/GI.1/Norwalk/1968/U.S. VLP (human norovirus GI.1, UniProt Q83884 1-530 (Norovirus (strain entry), limits assumed))
T1 construct: mature; full-length VP1 (ORF2) assembled as virus-like particle in baculovirus/Sf9; also called Norwalk VLP; NV
T1 sequence (looked up): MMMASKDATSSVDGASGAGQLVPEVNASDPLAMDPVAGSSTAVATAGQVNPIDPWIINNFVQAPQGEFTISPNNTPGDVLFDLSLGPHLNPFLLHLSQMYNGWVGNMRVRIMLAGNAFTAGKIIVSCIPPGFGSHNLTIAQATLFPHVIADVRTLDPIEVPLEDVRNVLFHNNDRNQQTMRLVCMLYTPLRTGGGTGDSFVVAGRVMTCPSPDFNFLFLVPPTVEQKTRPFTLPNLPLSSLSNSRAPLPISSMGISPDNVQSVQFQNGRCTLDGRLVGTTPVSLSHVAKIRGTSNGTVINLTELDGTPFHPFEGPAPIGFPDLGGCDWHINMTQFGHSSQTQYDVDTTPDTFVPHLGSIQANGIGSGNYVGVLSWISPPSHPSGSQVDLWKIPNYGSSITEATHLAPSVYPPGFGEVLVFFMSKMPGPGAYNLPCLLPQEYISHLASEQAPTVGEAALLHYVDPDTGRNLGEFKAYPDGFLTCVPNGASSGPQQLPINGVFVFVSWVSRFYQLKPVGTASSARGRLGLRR

B1: VHH 5.4 (VHH)
VHH: QVQLQQSGGGLVQPGGSLRLSCVASESTVSINIMGWYRQAPGKQRELVATITTGGTTNYADSVKGRFTISRDNAKNTVYLQMNSLEPEDTAVYYCNLKRRDLQARFGGYWGQGTQVTVSS
notes: llama VHH, MD2004 library; pHEN6, C-terminal His6 tag; also called clone 5.4
B2: VHH 4.1 (VHH)
VHH: QVKLQQSGGGLVQPGGSLRLSCAASESTISINTLGWYRQAPGNQRELVATITTGGTTNYADSVKGRFTISRDNAKNTVYLQMNNLEPGDTAVYYCNLKRRDLQSRFGGYWGQGTQVTVSS
notes: llama VHH, MD2004 library; pHEN6, C-terminal His6 tag; also called clone 4.1
B3: VHH 6.3 (VHH)
VHH: QVQLQQSGGGLVQPGGSLRLSCAASGSIFSIHTMGWYRQAPGKQRELVTTITTGGTTNYADSVKGRFTISRDDAKNTVYLQMNNLKPEDTAVYYCYALIQTASTTWYRQYWGQGTQVTVSS
notes: llama VHH, Norwalk (GI.1) library; also called clone 6.3
B4: VHH 7.3 (VHH)
VHH: QVKLQESGGGLVQPGGSLRLSCTASRSIFTRAMAWYRQAPGKQRELVAAIDSGDRTHYADSVKGRFTISRNNAKDTLYLQMNSLKSEDTAVYYCNANLGALLDYWGQGTQVTVSS
notes: llama VHH, Norwalk library; pHEN6, C-terminal His6 tag; also called clone 7.3
B5: VHH 13.1 (VHH)
VHH: QVKLQESGGGWVQAGGSLRLSCAASALTASITTMGWFRQTPEKEREFLAAINWTGDYKYYADSVKGRFTISRDNAKNTVDLQMNQLKPEDTAVYYCAASKIRNDIYLNDYTWYQYWGQGTQVTVSS
notes: llama VHH, Norwalk library, subtractive biopanning; His6 tag; also called 13.2; clone 13

How the values were obtained:
[1] = molecular target: T2, Hu/NoV/GII.7/DC119/U.S. VLP (human norovirus GII.7); assay: VLP ELISA
T2 construct: mature; baculovirus VLP; VP2 may be present

[2] = molecular target: T3, Hu/NoV/GII.1/Hawaii/1971/U.S. VLP (human norovirus GII.1); assay: VLP ELISA
T3 construct: mature; baculovirus VLP; VP2 may be present

[3] = molecular target: T4, Hu/NoV/GII.3/CHDC4031/1988/U.S. VLP (human norovirus GII.3); assay: VLP ELISA
T4 construct: mature; baculovirus VLP; VP2 may be present

[4] = molecular target: T5, Hu/NoV/Snow Mountain/GII.2/U.S. VLP (human norovirus GII.2); assay: VLP ELISA
T5 construct: mature; baculovirus VLP; VP2 may be present

[5] = molecular target: T6, Hu/NoV/GII.4/MD2004/2004/U.S. VLP (human norovirus GII.4); assay: VLP ELISA
T6 construct: mature; baculovirus VLP; VP2 may be present; also called MD2004 VLP

[6] = molecular target: T7, Hu/GII.6/Bethesda/2012/U.S. VLP (human norovirus GII.6); assay: VLP ELISA
T7 construct: mature; baculovirus VLP; VP2 may be present

[7] = molecular target: T8, Hu/NoV/GII.4/MD145-12/1997/U.S. VLP (human norovirus GII.4); assay: VLP ELISA
T8 construct: mature; baculovirus VLP; VP2 may be present

[8] = molecular target: T9, Hu/NoV/GII.4/RockvilleD1/2012/U.S. VLP (human norovirus GII.4); assay: VLP ELISA
T9 construct: mature; baculovirus VLP; VP2 may be present

[9] = molecular target: T10, Hu/NoV/GII.2/Henryton/1971/U.S. VLP (human norovirus GII.2); assay: VLP ELISA
T10 construct: mature; baculovirus VLP; VP2 may be present

[10] = molecular target: T11, Hu/NoV/GII.4/CHDC4871/1977/U.S. VLP (human norovirus GII.4); assay: VLP ELISA
T11 construct: mature; baculovirus VLP; VP2 may be present

[11] = molecular target: T12, Hu/NoV/GII.4/HS-191/2001/U.S. VLP (human norovirus GII.4); assay: VLP ELISA
T12 construct: mature; baculovirus VLP; VP2 may be present

[12] = molecular target: T8, Hu/NoV/GII.4/MD145-12/1997/U.S. VLP; assay: blockade ELISA: VLP binding to saliva Ly+
Experimental: (§1) For this assay saliva positive for Ly antigen collected from a secretor individual was used. Saliva was boiled (95° C.) for 10 minutes immediately after collection, centrifuged for 5 minutes at 13000×g and the supernatants stored at −20° C. until used. ELISA 96 well U bottom polyvinyl plates Dynatech (Nunc, Thermo, EEUU) were coated with 100 μl/well of a 1/400 saliva dilution in 50 μM carbonate-bicarbonate buffer, pH 9.6. The plate was incubated overnight at 37° C. in a wet atmosphere. In parallel, serial two-fold dilutions of VHH starting from 8 ug/ml were mixed with 1.5 ug/ml of NoV VLP Norwalk and MD145 and incubated for 1h at 37° C. After 6 washes and a blocking step with 5% dry milk/0.05% Tween₂₀-PBS, 50 ul of each VHH-VLP mixture was transferred to the reaction plate, in duplicate. The assay was developed using a specific polyclonal antiserum made in guinea pig (1:10,000) followed by a peroxidase labeled anti-guinea pig IgG (1:2,000) and ABTS/H₂O₂ as substrate chromogen (KPL), 100 μl per well. Absorbance at 405 nm was measured. Mean % control binding, EC50 and criteria for determination of a blockade VHH were calculated as described above.

[13] = molecular target: T6, Hu/NoV/GII.4/MD2004/2004/U.S. VLP; assay: blockade ELISA: VLP binding to PGM type III
Experimental: (§2) Pig Gastric Mucin Type III (PGM) (Sigma Chemicals) was used as a substrate for NoV VLP antibody-blockade assay as previously described. Briefly, PGM was resuspended in PBS at 5 mg/ml and coated onto 96 well U bottom polyvinyl plates Dynatech (Nunc, Thermo, USA) at 10 μg/ml in PBS for 4 hours. Plates were then blocked ON at 4° C. in 5% dry milk in 0.05% Tween₂₀-PBS. […] One hundred μl of VLPs-VHH mix were transferred to the PGM coated plates and incubated for 1 hour. Bound VLPs were detected by specific hyperimmune sera made in guinea pig, followed by anti-guinea pig IgG-HRP (KLP). ABTS/H₂O₂ was used as chromogen/substrate solution. All incubations were performed at room temperature and absorbance at 405 nm was measured. Mean % control binding, EC50 and criteria for determination of a blockade VHH were calculated as described above.

[14] = molecular target: T8, Hu/NoV/GII.4/MD145-12/1997/U.S. VLP; assay: blockade ELISA: VLP binding to synthetic HBGA H3
[15] = molecular target: T6, Hu/NoV/GII.4/MD2004/2004/U.S. VLP; assay: cell-based or functional assay
[16] = molecular target: T8, Hu/NoV/GII.4/MD145-12/1997/U.S. VLP; assay: cell-based or functional assay
[17] = molecular target: T1, Hu/NoV/GI.1/Norwalk/1968/U.S. VLP; assay: VLP ELISA
[18] = molecular target: T13, Hu/NoV/GI.1/P7-587/2007/Stromstad/Sweden VLP (human norovirus GI.1); assay: VLP ELISA
T13 construct: mature; baculovirus VLP; VP2 may be present; also called Norovirus 2007

[19] = molecular target: T1, Hu/NoV/GI.1/Norwalk/1968/U.S. VLP; assay: blockade ELISA: VLP binding to saliva Ly+
Experimental: as §1

[20] = molecular target: T1, Hu/NoV/GI.1/Norwalk/1968/U.S. VLP; assay: blockade ELISA: VLP binding to synthetic HBGA H1
[21] = molecular target: T1, Hu/NoV/GI.1/Norwalk/1968/U.S. VLP; assay: blockade ELISA: VLP binding to PGM type III
Experimental: as §2

[22] = molecular target: T1, Hu/NoV/GI.1/Norwalk/1968/U.S. VLP; assay: cell-based or functional assay
[23] = molecular target: T13, Hu/NoV/GI.1/P7-587/2007/Stromstad/Sweden …; assay: cell-based or functional assay
[24] = molecular target: T14, Hu/NoV/GI.3/Desert-Shield395/1990/U.S. VLP (human norovirus GI.3); assay: VLP ELISA
T14 construct: mature; baculovirus VLP; VP2 may be present

Binder	minimum concentration of VHH able to recognize 100 ng of VLP [1]	minimum concentration of VHH able to recognize 100 ng of VLP [2]	minimum concentration of VHH able to recognize 100 ng of VLP [3]	minimum concentration of VHH able to recognize 100 ng of VLP [4]	minimum concentration of VHH able to recognize 100 ng of VLP [5]	minimum concentration of VHH able to recognize 100 ng of VLP [6]	minimum concentration of VHH able to recognize 100 ng of VLP [7]	minimum concentration of VHH able to recognize 100 ng of VLP [8]	minimum concentration of VHH able to recognize 100 ng of VLP [9]	minimum concentration of VHH able to recognize 100 ng of VLP [10]	minimum concentration of VHH able to recognize 100 ng of VLP [11]	EC50 [12]	EC50 [13]	EC50 [14]	HAI titer, B Rh+ RBC [15]	HAI titer, B Rh+ RBC [16]	minimum concentration of VHH able to recognize 100 ng of VLP [17]	minimum concentration of VHH able to recognize 100 ng of VLP [18]	EC50 [19]	HAI titer, 0 Rh- RBC [22]	other results
B1	0.5 ng/well	1 ng/well	0.5 ng/well	2 ng/well	1 ng/well	1 ng/well	4 ng/well	0.5 ng/well	2 ng/well	0.5 ng/well	0.25 ng/well	1.27 µg/mL	2.02 µg/mL	0.718 µg/mL	0.39 µg/mL	0.39 µg/mL	–	–	–	–	–
B2	0.5 ng/well	1 ng/well	2 ng/well	2 ng/well	2 ng/well	2 ng/well	2 ng/well	1 ng/well	1 ng/well	0.5 ng/well	0.5 ng/well	1.38 µg/mL	2.91 µg/mL	0.712 µg/mL	0.19 µg/mL	0.39 µg/mL	–	–	–	–	–
B3	–	–	–	–	–	–	–	–	–	–	–	–	–	–	–	–	0.5 ng/well	0.5 ng/well	2.04 µg/mL	0.19 µg/mL	EC50 [20]: 1.01 µg/mL; EC50 [21]: 0.661 µg/mL; HAI titer, 0 Rh- RBC [23]: 0.05 µg/mL
B4	–	–	–	–	–	–	–	–	–	–	–	–	–	–	–	–	0.5 ng/well	0.5 ng/well	–	0.39 µg/mL	minimum concentration of VHH able to recognize 100 ng of VLP [24]: 0.5 ng/well; HAI titer, 0 Rh- RBC [23]: 0.05 µg/mL
B5	–	–	–	–	–	–	–	–	–	–	–	–	–	–	–	–	2 ng/well	–	2.27 µg/mL	0.19 µg/mL	EC50 [20]: 2.03 µg/mL; EC50 [21]: 1.29 µg/mL

— patent US20200283507A1 (US Dept. of Health and Human Services, published 2020)
